Consider 11 sequences from the Immune Epitope Database (IEDB).

The target of assay [1] is HLA-A*02:01. Briefly: IEDB peptide-MHC binding, purified MHC/direct/fluorescence; filed as Kd, often an IC50 or EC50 that approximates it; ≥ and ≤ were set here for values at or beyond the usual limits of such assays.
Another assay addresses HLA-A*01:01. Described as above.
For assay [2], the target named is HLA-B*39:01. The assay is described as above. Particulars: source organism: Mycobacterium tuberculosis str. Haarlem.
Another assay addresses HLA-B*58:01. The assay is described as above.
In assay [3] the target is HLA-A*03:01. Described as above.
For a further assay, the target named is HLA-B*27:05. The description is as above.
A further assay has as its target HLA-B*44:02. The assay is described as above. Particulars: source organism: Mycobacterium tuberculosis str. Haarlem.
The target in assay [4] is HLA-B*46:01. Described as above. Particulars: source organism: Mycobacterium tuberculosis str. Haarlem.
For another assay, the target named is HLA-B*07:02. The description is as above.
Assay [5] has as its target HLA-B*57:01. Described as above.
The target of assay [6] is HLA-B*15:01. Described as above.
A further assay deals with HLA-A*31:01. The assay is described as above.
Another assay has as its target HLA-C*12:03. Described as above.
In another assay the target is HLA-B*40:01. Described as above. The note with it: source organism: Rickettsia felis.
The target in a further assay is HLA-B*08:01. Described as above. The note with it: source organism: Rickettsia felis.
For assay [7], the target named is HLA-B*15:17. Described as above.
A further assay concerns the target HLA-A*11:01. The assay is described as above. Particulars: source organism: Rickettsia felis.
A further assay concerns the target HLA-A*69:01. Described as above.
Assay [8] concerns the target HLA-A*26:01. The assay is described as above. The note with it: source organism: Rickettsia felis.
Another assay concerns the target HLA-B*35:01. The assay is described as above. Particulars: source organism: Rickettsia prowazekii.
The target of a further assay is HLA-B*48:01. Described as above. The note with it: source organism: West Nile virus.
The target in the next assay is HLA-C*06:02. The description is as above. The note with it: source organism: West Nile virus.
Assay [9] deals with HLA-A*02:01. Briefly: IEDB peptide-MHC binding, purified MHC/competitive/fluorescence; filed as Kd, often an IC50 or EC50 that approximates it; ≥ and ≤ were set here for values at or beyond the usual limits of such assays.
In the next assay the target is HLA-A*02:12. The assay is described as above. The note with it: source organism: Burkholderia pseudomallei 668.
Another assay addresses HLA-A*24:03. The assay is described as above.
For a further assay, the target named is HLA-C*15:02. As to the kind of experiment: IEDB peptide-MHC binding, purified MHC/direct/fluorescence; filed as Kd, often an IC50 or EC50 that approximates it; ≥ and ≤ were set here for values at or beyond the usual limits of such assays.
In a further assay the target is HLA-B*27:03. Briefly: IEDB peptide-MHC binding, purified MHC/competitive/fluorescence; filed as Kd, often an IC50 or EC50 that approximates it; ≥ and ≤ were set here for values at or beyond the usual limits of such assays. The note with it: source organism: Salmonella enterica subsp. enterica serovar Choleraesuis str. SC-B67.
In assay [10] the target is HLA-B*39:01. The assay is described as above. Particulars: source organism: Salmonella enterica subsp. enterica serovar Choleraesuis str. SC-B67.
Assay [11] concerns the target HLA-B*15:17. The assay is described as above. The note with it: source organism: Salmonella enterica subsp. enterica serovar Choleraesuis str. SC-B67.
A further assay deals with HLA-A*29:02. The assay is described as above. The note with it: source organism: Salmonella enterica subsp. enterica serovar Choleraesuis str. SC-B67.
Assay [12] has as its target HLA-A*03:01. The description is as above. The note with it: source organism: Salmonella enterica subsp. enterica serovar Choleraesuis str. SC-B67.
A further assay addresses HLA-A*02:19. The description is as above. Particulars: source organism: Salmonella enterica subsp. enterica serovar Choleraesuis str. SC-B67.
Assay [13] concerns the target HLA-B*46:01. Described as above. The note with it: source organism: Salmonella enterica subsp. enterica serovar Choleraesuis str. SC-B67.
Assay [14] has as its target HLA-B*57:01. The description is as above. Particulars: source organism: Salmonella enterica subsp. enterica serovar Choleraesuis str. SC-B67.
The target of assay [15] is HLA-A*26:01. The description is as above. Particulars: source organism: Salmonella enterica subsp. enterica serovar Choleraesuis str. SC-B67.
The target of another assay is HLA-A*23:01. Described as above. The note with it: source organism: Salmonella enterica subsp. enterica serovar Choleraesuis str. SC-B67.
Assay [16] addresses HLA-B*15:01. The assay is described as above. Particulars: source organism: Salmonella enterica subsp. enterica serovar Choleraesuis str. SC-B67.
For another assay, the target named is HLA-B*18:01. Described as above. Particulars: source organism: Salmonella enterica subsp. enterica serovar Choleraesuis str. SC-B67.
In a further assay the target is HLA-B*15:42. The assay is described as above. Particulars: source organism: Burkholderia mallei SAVP1.
In a further assay the target is HLA-B*45:06. The description is as above. The note with it: source organism: Burkholderia mallei SAVP1.
A further assay has as its target HLA-B*83:01. Described as above. The note with it: source organism: Burkholderia mallei SAVP1.
Another assay has as its target HLA-C*05:01. As to the kind of experiment: IEDB peptide-MHC binding, purified MHC/direct/fluorescence; filed as Kd, often an IC50 or EC50 that approximates it; ≥ and ≤ were set here for values at or beyond the usual limits of such assays. Particulars: source organism: Listeria monocytogenes EGD-e.
Setting [17] is: source organism: Mycobacterium tuberculosis str. Haarlem.
The mark [18] stands for this setting: source organism: Rickettsia felis.
Setting [19] is: source organism: Rickettsia prowazekii.
Setting [20] is: source organism: Vibrio cholerae.
[21] abbreviates: source organism: Salmonella enterica subsp. enterica serovar Choleraesuis str. SC-B67.
[22] abbreviates: source organism: Burkholderia thailandensis.

Some results are limits rather than exact numbers.

In general, Kd refers to the constant that tells how readily two partners part at equilibrium. Lower therefore signals a tighter complex. As for FHARFVQAL, the Kd was at least 20 µM with HLA-A*02:01 [1] (setting [17]); at least 20 µM with HLA-A*01:01 (setting [17]); 0.0556 µM with HLA-B*39:01 [2]; at least 20 µM with HLA-B*58:01 (setting [17]); at least 20 µM with HLA-A*03:01 [3] (setting [17]); at least 20 µM in the assay with HLA-B*27:05 (setting [17]). Moreover, the Kd with HLA-B*44:02, in the assay with HLA-B*46:01 [4], with HLA-B*07:02 (setting [17]), with HLA-B*57:01 [5] (setting [17]), in the assay with HLA-B*15:01 [6] (setting [17]) and with HLA-A*31:01 (setting [17]) was at least 20 µM each time.
As for VSFICTTIL, in the assay with HLA-C*12:03 (source organism: Murid gammaherpesvirus 4), the dissociation constant (Kd) was determined as 0.485 µM.
On to GSFKEYVFW, for which the Kd with HLA-A*02:01 [1] (setting [18]) is at least 20 µM; with HLA-A*01:01 (setting [18]) it was at least 20 µM; with HLA-B*40:01, at least 20 µM; with HLA-B*08:01, at least 20 µM; with HLA-B*58:01 (setting [19]), 0.00781 µM; in the assay with HLA-B*15:17 [7] (setting [18]) it was 0.105 µM. Further, the Kd with HLA-A*11:01 is at least 20 µM; in the assay with HLA-A*03:01 [3] (setting [18]), at least 20 µM; in the assay with HLA-B*27:05 (setting [18]), at least 20 µM; with HLA-A*69:01 (setting [18]), at least 20 µM; with HLA-B*07:02 (setting [18]), at least 20 µM; with HLA-B*57:01 [5] (setting [18]) it was 0.167 µM. For the same sequence, the Kd with HLA-A*26:01 [8] was at least 20 µM; in the assay with HLA-B*15:01 [6] (setting [19]), 5.69 µM; with HLA-A*31:01 (setting [18]), at least 20 µM; in the assay with HLA-B*35:01, 1.9 µM.
Consider RRSRRSLTV, for which the Kd is at least 20 µM with HLA-B*48:01 and 0.036 µM with HLA-C*06:02.
GIYGAVIPL: the results for the Kd with HLA-A*02:01 [9] (source organism: Burkholderia pseudomallei 668) and in the assay with HLA-A*02:12 were at most 0.0001 µM and 0.0086 µM, respectively.
In the case of FTRDTGATL, the Kd with HLA-C*12:03 (source organism: Mycobacterium tuberculosis variant bovis BCG str. Pasteur 1173P2) was at most 0.001 µM.
With YYVMGGAFL, the Kd with HLA-A*24:03 (source organism: Bacillus anthracis str. A0488) was found to be 0.0003 µM.
With KLTEEIIKL, the Kd was 0.0421 µM with HLA-A*02:01 [1] (setting [20]), at least 20 µM with HLA-C*15:02 (source organism: Vibrio cholerae MAK 757) and 2.21 µM in the assay with HLA-A*69:01 (setting [20]).
As to GIALAVPCV, the Kd is 0.0007 µM with HLA-A*02:01 [9] (setting [21]); at least 20 µM with HLA-A*24:03 (setting [21]); at least 20 µM with HLA-B*27:03; at least 20 µM with HLA-B*39:01 [10]; at least 20 µM in the assay with HLA-B*15:17 [11]; 3 µM with HLA-A*29:02. Besides, the Kd is at least 20 µM with HLA-A*03:01 [12]; 0.0018 µM in the assay with HLA-A*02:19; at least 20 µM with HLA-B*46:01 [13]; at least 20 µM in the assay with HLA-B*57:01 [14]; at least 20 µM in the assay with HLA-A*26:01 [15]; at least 20 µM with HLA-A*23:01. Further, the Kd in the assay with HLA-B*15:01 [16] and with HLA-B*18:01 was at least 20 µM in each case.
Consider MALATGLWW, for which the Kd with HLA-B*58:01 (setting [22]) was 0.0005 µM; with HLA-B*15:17 [7] (setting [22]), 0.0004 µM; in the assay with HLA-B*57:01 [5] (source organism: Burkholderia mallei ATCC 23344) it was 0.033 µM; in the assay with HLA-B*15:42, at least 5 µM; with HLA-B*45:06, at least 5 µM; in the assay with HLA-B*83:01 it was at least 5 µM.
Regarding KAAETYHVF, the values for the Kd in the assay with HLA-B*58:01 (source organism: Listeria monocytogenes), with HLA-C*15:02 (source organism: Listeria monocytogenes EGD-e) and with HLA-C*05:01 were 0.022 µM, 0.036 µM and at least 20 µM, respectively.
